Drawing on US20120270800A1 (published 2012), this text covers Kd for one molecule.

This test concerns the target mSin3. In words: fluorescence polarization.

Positions of bridges follow the written chain, without caps; N, C: chain ends. Non-standard residues stand in square brackets, D forms with d. No end group written: not given here. S5 = C=CCCC[C@](C)(N)C(=O)O; βAla = NCCC(=O)O

The molecule [βAla]VRRRI[S5]MLL[S5]AANYLER (staple 7-11; also: FITC-conjugated in the assay, site not given here) [SID2] returned a Kd of 12 nM.

As usually defined, the Kd is the concentration at which binding is half-saturated. Low readings indicate higher affinity, high ones lower affinity.
